According to patent US20240376455:

System: T1, LPG10159 (Contaminated/multiple)
T1 sequence: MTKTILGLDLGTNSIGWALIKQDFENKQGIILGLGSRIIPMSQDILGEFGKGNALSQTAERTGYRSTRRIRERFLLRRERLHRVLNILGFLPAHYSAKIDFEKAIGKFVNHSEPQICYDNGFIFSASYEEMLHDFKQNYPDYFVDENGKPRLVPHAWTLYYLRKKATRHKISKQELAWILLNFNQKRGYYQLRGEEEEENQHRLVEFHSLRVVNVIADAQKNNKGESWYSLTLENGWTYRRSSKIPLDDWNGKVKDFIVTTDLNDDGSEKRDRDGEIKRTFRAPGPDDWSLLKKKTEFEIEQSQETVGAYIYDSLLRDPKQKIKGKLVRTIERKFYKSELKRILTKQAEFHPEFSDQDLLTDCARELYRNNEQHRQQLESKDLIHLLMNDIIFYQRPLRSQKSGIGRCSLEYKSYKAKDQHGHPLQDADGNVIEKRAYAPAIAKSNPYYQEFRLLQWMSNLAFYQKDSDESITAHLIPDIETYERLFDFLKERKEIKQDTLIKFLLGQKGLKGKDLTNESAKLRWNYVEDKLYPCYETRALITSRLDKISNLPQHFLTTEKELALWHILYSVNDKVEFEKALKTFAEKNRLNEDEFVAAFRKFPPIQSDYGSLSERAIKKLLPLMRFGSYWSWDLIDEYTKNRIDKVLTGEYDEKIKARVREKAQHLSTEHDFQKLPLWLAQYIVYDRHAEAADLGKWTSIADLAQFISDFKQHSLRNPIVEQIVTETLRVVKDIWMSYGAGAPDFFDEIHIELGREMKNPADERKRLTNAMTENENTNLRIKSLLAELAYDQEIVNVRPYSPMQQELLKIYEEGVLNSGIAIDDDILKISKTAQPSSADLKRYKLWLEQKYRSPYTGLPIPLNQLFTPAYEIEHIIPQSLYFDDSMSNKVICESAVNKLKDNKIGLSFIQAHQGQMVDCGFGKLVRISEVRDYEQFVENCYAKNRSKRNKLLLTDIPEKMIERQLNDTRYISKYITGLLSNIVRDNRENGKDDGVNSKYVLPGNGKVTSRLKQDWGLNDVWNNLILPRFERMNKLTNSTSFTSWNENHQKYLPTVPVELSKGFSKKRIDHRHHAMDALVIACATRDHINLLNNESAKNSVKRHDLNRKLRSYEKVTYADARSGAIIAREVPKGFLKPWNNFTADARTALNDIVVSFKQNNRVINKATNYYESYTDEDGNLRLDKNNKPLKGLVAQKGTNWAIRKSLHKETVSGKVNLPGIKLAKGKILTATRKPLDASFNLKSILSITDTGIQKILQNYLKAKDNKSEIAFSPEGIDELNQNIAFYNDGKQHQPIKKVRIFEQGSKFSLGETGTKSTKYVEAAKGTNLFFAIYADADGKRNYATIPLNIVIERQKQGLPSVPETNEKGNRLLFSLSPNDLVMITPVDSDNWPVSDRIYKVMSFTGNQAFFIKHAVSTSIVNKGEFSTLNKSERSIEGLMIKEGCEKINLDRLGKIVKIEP
Experiment: cleavage_in_vitro
Conditions: PAM SEQ ID 83

“GUUGUGAAUUGCUUUAAAGAAAGCAAUUCACAAUAAGGAUUAUUCCGUUGUGAAAACAUCUAGCGCCUCGUCUAUCUACGGGGCAUUUU / GATATAGACGTTGTGGCTGTTGTAGTAGAAATTC / GAATTTCTACTACAACAGCCACAACGTCTATATC [LPG10159 sgRNA L2 ; Library 2 target AGAAATTC]” gave an activity (% target strand cleaved) of 2.5.
